Columns and labels:
[1] = target: human interleukin-1 beta (IL-1β) protein standard (R&D Systems 201-LB-005) (human) (UniProt P01584); experiment: dSimoa sandwich (capture beads + detector m2), 300 pM streptavidin-DNA/15 min; IL-1B at 100 fM
[2] = target: human interleukin-1 beta (IL-1β) protein standard (R&D Systems 201-LB-005) (human) (UniProt P01584); experiment: conventional Simoa sandwich (capture beads + detector m2), 150 pM SβG/5 min; IL-1B at 25 fM
[3] = target: human interleukin-1 beta (IL-1β) protein standard (R&D Systems 201-LB-005) (human) (UniProt P01584); experiment: conventional Simoa sandwich (capture beads + detector m2), 150 pM SβG/5 min; IL-1B at 0.391 fM
[4] = target: human interleukin-1 beta (IL-1β) protein standard (R&D Systems 201-LB-005) (human) (UniProt P01584); experiment: dSimoa sandwich (capture beads + detector m2), 300 pM streptavidin-DNA/15 min; IL-1B at 0.05 fM
[5] = target: human interleukin-1 beta (IL-1β) protein standard (R&D Systems 201-LB-005) (human) (UniProt P01584); experiment: conventional Simoa sandwich (capture beads + detector m2), 300 pM SβG/15 min; IL-1B at 25 fM
[6] = target: human interleukin-1 beta (IL-1β) protein standard (R&D Systems 201-LB-005) (human) (UniProt P01584); experiment: conventional Simoa sandwich (capture beads + detector m2), 300 pM SβG/15 min; IL-1B at 6.25 fM
[7] = target: human interleukin-1 beta (IL-1β) protein standard (R&D Systems 201-LB-005) (human) (UniProt P01584); experiment: conventional Simoa sandwich (capture beads + detector m2), 300 pM SβG/15 min; IL-1B at 1.563 fM
[8] = target: human interleukin-1 beta (IL-1β) protein standard (R&D Systems 201-LB-005) (human) (UniProt P01584); experiment: conventional Simoa sandwich (capture beads + detector m2), 300 pM SβG/15 min; IL-1B at 0.024 fM
[9] = target: human interleukin-1 beta (IL-1β) protein standard (R&D Systems 201-LB-005) (human) (UniProt P01584); experiment: dSimoa sandwich (capture beads + detector m2), 300 pM streptavidin-DNA/15 min; IL-1B at 10 fM
[10] = target: human interleukin-1 beta (IL-1β) protein standard (R&D Systems 201-LB-005) (human) (UniProt P01584); experiment: conventional Simoa sandwich (capture beads + detector m2), 150 pM SβG/5 min; IL-1B at 1.563 fM
[11] = target: human interleukin-1 beta (IL-1β) protein standard (R&D Systems 201-LB-005) (human) (UniProt P01584); experiment: conventional Simoa sandwich (capture beads + detector m2), 150 pM SβG/5 min; IL-1B at 0.098 fM
[12] = target: human interleukin-1 beta (IL-1β) protein standard (R&D Systems 201-LB-005) (human) (UniProt P01584); experiment: dSimoa sandwich (capture beads + detector m2), 300 pM streptavidin-DNA/15 min; IL-1B at 0.1 fM
[13] = target: human interleukin-1 beta (IL-1β) protein standard (R&D Systems 201-LB-005) (human) (UniProt P01584); experiment: dSimoa sandwich (capture beads + detector m2), 300 pM streptavidin-DNA/15 min; IL-1B at 0.5 fM
[14] = target: human interleukin-1 beta (IL-1β) protein standard (R&D Systems 201-LB-005) (human) (UniProt P01584); experiment: conventional Simoa sandwich (capture beads + detector m2), 300 pM SβG/15 min; IL-1B at 0.098 fM
[15] = target: human interleukin-1 beta (IL-1β) protein standard (R&D Systems 201-LB-005) (human) (UniProt P01584); experiment: conventional Simoa sandwich (capture beads + detector m2), 300 pM SβG/15 min; IL-1B at 100 fM
[16] = target: human interleukin-1 beta (IL-1β) protein standard (R&D Systems 201-LB-005) (human) (UniProt P01584); experiment: conventional Simoa sandwich (capture beads + detector m2), 300 pM SβG/15 min; IL-1B at 0.391 fM
[17] = target: human interleukin-1 beta (IL-1β) protein standard (R&D Systems 201-LB-005) (human) (UniProt P01584); experiment: dSimoa sandwich (capture beads + detector m2), 300 pM streptavidin-DNA/15 min; IL-1B at 0.01 fM
[18] = target: human interleukin-1 beta (IL-1β) protein standard (R&D Systems 201-LB-005) (human) (UniProt P01584); experiment: conventional Simoa sandwich (capture beads + detector m2), 150 pM SβG/5 min; IL-1B at 100 fM
[19] = target: human interleukin-1 beta (IL-1β) protein standard (R&D Systems 201-LB-005) (human) (UniProt P01584); experiment: dSimoa sandwich (capture beads + detector m2), 300 pM streptavidin-DNA/15 min; IL-1B at 1 fM

Chain of UniProt P01584 (P01584 117-269 limits assumed): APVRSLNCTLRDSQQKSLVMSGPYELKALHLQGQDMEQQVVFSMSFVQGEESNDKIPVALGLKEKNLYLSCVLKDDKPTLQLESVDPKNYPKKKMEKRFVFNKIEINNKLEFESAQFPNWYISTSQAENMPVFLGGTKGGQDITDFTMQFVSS

average AMB [1]: 0.822 AMB
average AEB [2]: 0.199 AEB
average AEB [3]: 0.0135 AEB
average AMB [4]: 0.0054 AMB
average AEB [5]: 0.221 AEB
average AEB [6]: 0.0714 AEB
average AEB [7]: 0.0379 AEB
average AEB [8]: 0.0428 AEB
average AMB [9]: 0.0898 AMB
average AEB [10]: 0.0222 AEB
average AEB [11]: 0.0108 AEB
average AMB [12]: 0.0051 AMB
average AMB [13]: 0.0114 AMB
average AEB [14]: 0.0271 AEB
average AEB [15]: 0.767 AEB
average AEB [16]: 0.029 AEB
average AMB [17]: 0.0044 AMB
average AEB [18]: 0.721 AEB
average AMB [19]: 0.0133 AMB
Substance: IL-1β capture antibody (Biolegend 508202)
